The target in the series is c-met receptor tyrosine kinase (native, on MM cell surface) (Homo sapiens) (UniProt P08581). The experiment in a line: flow cytometry cell binding. As to conditions: MM.1S cells; library signal subtracted; 5 mM MgCl2; 1x PBS, 4.5 g/L glucose, 5 mM MgCl2, 0.1 mg/mL yeast tRNA, 1 mg/mL BSA, 4 C, 30 min; 3e5 cells in 200 uL; pH not stated.
Chain of c-met receptor tyrosine kinase (native, on MM cell surface) (Homo sapiens) (P08581 25-1390): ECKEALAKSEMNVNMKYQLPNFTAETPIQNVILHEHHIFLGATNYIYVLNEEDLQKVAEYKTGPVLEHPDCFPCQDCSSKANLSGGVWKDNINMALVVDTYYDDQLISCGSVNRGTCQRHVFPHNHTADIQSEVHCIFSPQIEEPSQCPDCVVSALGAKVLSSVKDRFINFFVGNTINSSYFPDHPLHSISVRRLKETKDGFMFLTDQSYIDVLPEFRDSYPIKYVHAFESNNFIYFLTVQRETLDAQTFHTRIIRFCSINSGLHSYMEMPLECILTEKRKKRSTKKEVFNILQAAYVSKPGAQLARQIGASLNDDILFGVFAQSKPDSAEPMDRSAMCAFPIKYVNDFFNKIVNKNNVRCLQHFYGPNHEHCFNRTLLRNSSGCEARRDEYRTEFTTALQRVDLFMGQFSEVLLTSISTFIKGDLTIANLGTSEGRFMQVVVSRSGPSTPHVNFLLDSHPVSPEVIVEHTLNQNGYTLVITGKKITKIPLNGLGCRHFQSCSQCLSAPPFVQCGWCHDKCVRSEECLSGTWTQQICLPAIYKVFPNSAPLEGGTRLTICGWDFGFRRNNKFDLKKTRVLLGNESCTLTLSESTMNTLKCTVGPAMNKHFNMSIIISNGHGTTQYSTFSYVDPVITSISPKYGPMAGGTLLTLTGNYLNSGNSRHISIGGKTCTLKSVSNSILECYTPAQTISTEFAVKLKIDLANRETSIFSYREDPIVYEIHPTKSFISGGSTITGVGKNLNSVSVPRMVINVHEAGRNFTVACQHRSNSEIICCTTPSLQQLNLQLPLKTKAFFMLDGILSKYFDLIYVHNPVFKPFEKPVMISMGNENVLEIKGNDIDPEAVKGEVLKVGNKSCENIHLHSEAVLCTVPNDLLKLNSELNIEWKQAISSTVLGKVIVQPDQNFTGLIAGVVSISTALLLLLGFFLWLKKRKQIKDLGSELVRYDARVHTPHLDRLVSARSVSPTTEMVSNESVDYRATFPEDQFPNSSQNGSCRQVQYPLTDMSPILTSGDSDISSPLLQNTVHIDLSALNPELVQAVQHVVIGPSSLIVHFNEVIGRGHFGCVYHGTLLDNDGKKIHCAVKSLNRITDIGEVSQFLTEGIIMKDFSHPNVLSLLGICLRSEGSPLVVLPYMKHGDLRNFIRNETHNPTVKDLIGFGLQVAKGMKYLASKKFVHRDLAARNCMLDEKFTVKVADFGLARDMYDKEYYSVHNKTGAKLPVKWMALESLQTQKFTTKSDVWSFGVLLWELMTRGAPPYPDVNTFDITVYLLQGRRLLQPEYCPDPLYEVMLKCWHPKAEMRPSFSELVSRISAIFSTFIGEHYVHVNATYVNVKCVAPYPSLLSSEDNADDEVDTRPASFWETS

“ATCAGGCTGGATGGTAGCTCGGTCGGGGTGGGTGGGTTGGCAAGTCTGAT [SL1]”: the equilibrium dissociation constant (Kd) was 136 nM. That is a sub-micromolar value.

The record behind these values is publication PMC6237600.
